Test results: patent US20190117753A1 (VIRGINIA COMMONWEALTH UNIVERSITY, published 2019)

Biological target: T1, sLe^x-capped PSGL-1 on transfected Chinese hamster ovary cells (PSGL-1 CHO cells) (UniProt Q14242 42-412, sLe^x-capped (sialylated and fucosylated) glycans (so in the source))
T1 construct: whole, on cells; also called sialylated PSGL-1; sLe^x-modified PSGL-1
T1 sequence: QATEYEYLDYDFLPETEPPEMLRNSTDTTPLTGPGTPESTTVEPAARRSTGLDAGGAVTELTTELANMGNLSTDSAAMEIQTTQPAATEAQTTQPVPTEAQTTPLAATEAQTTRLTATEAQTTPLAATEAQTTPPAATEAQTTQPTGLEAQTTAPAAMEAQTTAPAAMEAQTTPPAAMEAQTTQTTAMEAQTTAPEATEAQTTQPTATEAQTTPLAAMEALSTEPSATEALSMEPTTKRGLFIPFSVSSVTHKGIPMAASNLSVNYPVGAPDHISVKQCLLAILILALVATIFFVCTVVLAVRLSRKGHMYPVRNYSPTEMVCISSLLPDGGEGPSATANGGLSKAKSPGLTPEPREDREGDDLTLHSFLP
Assay: PSGL-1 CHO cells preincubated with GST-OmpA; competitor: Aph organisms (data not shown)

B1: GST-OmpA (N-terminal glutathione-S-transferase-tagged A. phagocytophilum OmpA, excluding the signal sequence) (other)
chain: CGTLLPDSNVGVGRHDLGSHRSVAFAKKVEKVYFDIGKYDLKGPGKKVILELVEQLRQDDSMYLVVIGHADATGTEEYSLALGEKRANAVKQFIIGCDKSLAPRVTTQSRGKAEPEVLVYSTDAQEVEKANAQNRRAVIVVEFAHIPRSGVADMHAPVASSITSENSNASAEGEDMEASEFSSAIAN
notes: also called GST-ApOmpA; GST-tagged Aph OmpA; not shown: glutathione-S-transferase (GST) tag, N-terminal, from the pDest-15 vector
reduction of Aph binding to sLe^x-modified PSGL-1 relative to GST alone: ~60%
